To fix the notation:
B1: FAM-SFV gRNA probe1 (ssRNA)
RNA: GGUUGACGGGUCGGAUAGUUGCUU
B2: FAM-GAPDH probe (ssRNA)
RNA: UUUGUCAAGCUCAUUUCCUGGUAUGACAAC
B3: FAM-AHNAK probe (ssRNA)
RNA: AUGCAAAGGGCUUGGACUUGGGUGGCAGAG
B4: FAM-SFV gRNA probe2 (ssRNA)
RNA: GCGUCGUGUGAGCCCCCGAAAGACCACAUA

This data set has as its target SFV capsid (nucleocapsid N) (Semliki Forest virus (SFV4, …, UniProt P03315 1-267)). Description: fluorescence polarization; 20 nM probe, 0-8000 nM protein; FP: 50 mM Tris-HCl pH 7.4, 150 mM NaCl, 20 nM FAM-RNA, 15 min, room temperature. For orientation: In fluorescence polarisation assays a small probe gives low polarisation when free and higher when bound to something large.
Take B1: the binding result is on record as “binds”. For B2, the binding result was “binds”.

Regarding B3, the binding result is “binds”. B4: the binding result is “binds”.

For the origin of these results see PMC13067816, “Alphaviral Capsid Proteins Inhibit Stress Granule Assembly via Competitive RNA Binding With G3BP1”.
